Target: T1, guanylyl cyclase C (GCC), myc-tagged, full-length, expressed on HEK293-GCC#2 cells (UniProt P25092 24-1073, limits assumed)
T1 construct: whole, on cells; also called GCC antigen; GCC-expressing cells
Experiment: indirect immunofluorescence flow cytometry on HEK293-GCC#2 cells
Procedure: HEK293-GCC#2 and vector control cells were grown in standard cell culture medium supplemented with 10% fetal bovine serum (FBS). […] This centrifugation-wash step was repeated once more before cells were re-suspended at a concentration of 5×10⁶ cells/mL in 3% FBS/PBS, and added to the experimental wells of a V-bottom 96-well plate in 100 μL aliquots (˜500,000 cells). The plate was centrifuged for 5 min at 1200 rpm.
Following centrifugation, supernatant was removed from each well and replaced with 50 μL of primary antibody-drug conjugate solution. […] The 96-well dish was covered and incubated at 4° C. (on ice) for 1 hour before solutions were removed from the wells and the cells were washed twice in 100 μL of 3% FBS/PBS (without Ca²⁺ or Mg²⁺).
After completion of the second wash, 50 μL of secondary antibody solution was added to each experimental well, and the covered 96-well plate was placed at 4° C. (on ice) for 1 hour. The plate was then centrifuged, and the supernatant was replaced with 100 μL of 3% FBS/PBS (without Ca²⁺ or Mg²⁺). This centrifugation-wash step was repeated for a total of two cycles. The cells were finally reconstituted in 200 μL of PBS (without Ca²⁺ or Mg²⁺) and loaded onto the BD FACS Canto flow cytometer (BD Biosciences, Franklin Lakes, N.J.). Data were analyzed using FACS II Canto system software and the appropriate filter settings.

T1 sequence (P25092 24-1073 limits assumed): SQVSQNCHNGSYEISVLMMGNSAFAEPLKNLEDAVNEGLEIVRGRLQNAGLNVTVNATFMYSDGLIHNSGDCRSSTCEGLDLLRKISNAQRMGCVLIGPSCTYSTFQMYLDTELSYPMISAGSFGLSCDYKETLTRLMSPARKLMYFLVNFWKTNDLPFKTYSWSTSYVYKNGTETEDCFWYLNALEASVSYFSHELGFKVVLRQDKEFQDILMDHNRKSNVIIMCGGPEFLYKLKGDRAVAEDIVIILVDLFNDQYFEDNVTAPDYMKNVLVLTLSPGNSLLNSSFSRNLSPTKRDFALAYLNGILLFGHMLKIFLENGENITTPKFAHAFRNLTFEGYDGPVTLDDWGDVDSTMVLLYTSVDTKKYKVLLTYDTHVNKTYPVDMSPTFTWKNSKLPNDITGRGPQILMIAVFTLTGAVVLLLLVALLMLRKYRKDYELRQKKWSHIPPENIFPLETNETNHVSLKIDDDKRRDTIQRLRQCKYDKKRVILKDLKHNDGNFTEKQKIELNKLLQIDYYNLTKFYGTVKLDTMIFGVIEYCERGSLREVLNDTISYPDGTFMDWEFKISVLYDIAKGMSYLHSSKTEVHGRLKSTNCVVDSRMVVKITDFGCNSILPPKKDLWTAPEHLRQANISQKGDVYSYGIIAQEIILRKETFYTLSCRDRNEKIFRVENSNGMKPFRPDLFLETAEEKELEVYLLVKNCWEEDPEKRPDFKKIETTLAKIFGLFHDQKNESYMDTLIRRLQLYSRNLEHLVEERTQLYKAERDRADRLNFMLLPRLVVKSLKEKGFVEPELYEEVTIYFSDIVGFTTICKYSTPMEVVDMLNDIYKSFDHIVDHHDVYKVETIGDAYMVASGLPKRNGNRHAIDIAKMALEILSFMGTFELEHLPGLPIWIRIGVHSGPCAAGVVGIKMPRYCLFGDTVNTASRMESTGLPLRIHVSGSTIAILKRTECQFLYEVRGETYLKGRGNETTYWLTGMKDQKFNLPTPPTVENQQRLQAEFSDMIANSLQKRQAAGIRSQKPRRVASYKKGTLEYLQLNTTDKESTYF

- Affinity: 35 ng/mL
B1: 5F9 antibody (anti-GCC human monoclonal antibody 5F9, hIgG1/hKappa) (antibody, V domains shown)
VH: QVQLQQWGAGLLKPSETLSLTCAVFGGSFSGYYWSWIRQPPGKGLEWIGEINHRGNTNDNPSLKSRVTISVDTSKNQFALKLSSVTAADTAVYYCARERGYTYGNFDHWGQGTLVTVSS
VL: EIVMTQSPATLSVSPGERATLSCRASQSVSRNLAWYQQKPGQAPRLLIYGASTRATGIPARFSGSGSGTEFTLTIGSLQSEDFAVYYCQQYKTWPRTFGQGTNVEIKR
notes: The hybridoma antibody was IgG2, kappa; also called hu5F9; Human 5F9 antibody

From patent US20190038762A1 (Takeda / Millennium, published 2019)
